Data published in article PMC11101554, “Pyruvate kinase 2 from Synechocystis sp. PCC 6803 increased substrate affinity via glucose-6-phosphate and ribose-5-phosphate for phosphoenolpyruvate consumption” (Plant Molecular Biology, 2024).
One block for each molecule: values may come before it.

Columns and labels:
[1] = biological target: T1, SyPyk2 (Synechocystis pyruvate kinase 2) (Synechocystis sp. PCC 6803, UniProt P73534); assay: LDH-coupled assay, NADH oxidation at […] nm; format: biochemical; conditions: read-out: % activity at 1 mM
T1 construct: gene pyk2; synthesized gene in pGEX6P-1 (BamHI-XhoI), GST fusion from E. coli BL21, GST tag cut by PreScission protease; untagged 63 kDa
T1 sequence (P73534 1-591): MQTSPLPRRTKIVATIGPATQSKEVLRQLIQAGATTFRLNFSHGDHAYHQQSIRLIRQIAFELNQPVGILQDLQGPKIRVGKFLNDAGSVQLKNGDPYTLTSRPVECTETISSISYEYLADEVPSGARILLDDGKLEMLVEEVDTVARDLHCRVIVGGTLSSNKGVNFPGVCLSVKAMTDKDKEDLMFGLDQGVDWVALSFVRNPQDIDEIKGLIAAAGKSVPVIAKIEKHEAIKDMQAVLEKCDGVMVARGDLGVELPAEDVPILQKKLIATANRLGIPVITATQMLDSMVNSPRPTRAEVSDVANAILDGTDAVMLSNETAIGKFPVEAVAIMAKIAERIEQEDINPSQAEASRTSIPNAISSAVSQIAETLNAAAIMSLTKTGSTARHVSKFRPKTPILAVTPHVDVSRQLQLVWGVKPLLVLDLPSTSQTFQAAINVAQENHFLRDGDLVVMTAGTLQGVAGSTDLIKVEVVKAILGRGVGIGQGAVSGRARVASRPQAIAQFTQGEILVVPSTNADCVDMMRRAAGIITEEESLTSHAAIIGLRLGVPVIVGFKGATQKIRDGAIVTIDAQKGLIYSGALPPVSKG

[2] = biological target: T1, SyPyk2 (Synechocystis pyruvate kinase 2); assay: LDH-coupled assay, NADH oxidation at […] nm; format: biochemical
purified protein [3] = substrate: Nc1ncnc2c1ncn2[C@@H]1O[C@H](COP(=O)(O)OP(=O)(O)O)[C@@H](O)[C@H]1O; assay: purified protein; format: biochemical, Synechocystis sp. PCC 6803; conditions: 55 °C, pH 7.0 MES-NaOH, 5 mM PEP, 15 mM MgCl2, 100 mM KCl, hyperbolic
purified protein [4] = substrate: C=C(OP(=O)(O)O)C(=O)O; assay: purified protein; format: biochemical, Synechocystis sp. PCC 6803; conditions: 55 °C, pH 7.0 MES-NaOH, 2 mM ADP, 15 mM MgCl2, 100 mM KCl, no effector, sigmoidal (half-saturation, cooperative)

- activity at 1000 µM [1]: ~200%
Molecule: O=P(O)(O)OC[C@H]1OC(O)[C@H](O)[C@@H](O)[C@@H]1O (stereo partly drawn) [G6P, glucose-6-phosphate]

- activity at 1000 µM [1]: ~150%
Molecule: O=P(O)(O)OC[C@H]1OC(O)[C@H](O)[C@@H]1O (stereo partly drawn) [R5P, ribose-5-phosphate]

Further lines, the molecule ahead of its results:

Molecule: Nc1ncnc2c1ncn2[C@@H]1O[C@H](COP(=O)(O)OP(=O)(O)OP(=O)(O)O)[C@@H](O)[C@H]1O [ATP, adenosine triphosphate]
- IC50 [2]: 4.1 mM

B1: SyPyk2 (Synechocystis pyruvate kinase 2) (Synechocystis sp. PCC 6803 substr. Kazusa) (protein)
chain: MQTSPLPRRTKIVATIGPATQSKEVLRQLIQAGATTFRLNFSHGDHAYHQQSIRLIRQIAFELNQPVGILQDLQGPKIRVGKFLNDAGSVQLKNGDPYTLTSRPVECTETISSISYEYLADEVPSGARILLDDGKLEMLVEEVDTVARDLHCRVIVGGTLSSNKGVNFPGVCLSVKAMTDKDKEDLMFGLDQGVDWVALSFVRNPQDIDEIKGLIAAAGKSVPVIAKIEKHEAIKDMQAVLEKCDGVMVARGDLGVELPAEDVPILQKKLIATANRLGIPVITATQMLDSMVNSPRPTRAEVSDVANAILDGTDAVMLSNETAIGKFPVEAVAIMAKIAERIEQEDINPSQAEASRTSIPNAISSAVSQIAETLNAAAIMSLTKTGSTARHVSKFRPKTPILAVTPHVDVSRQLQLVWGVKPLLVLDLPSTSQTFQAAINVAQENHFLRDGDLVVMTAGTLQGVAGSTDLIKVEVVKAILGRGVGIGQGAVSGRARVASRPQAIAQFTQGEILVVPSTNADCVDMMRRAAGIITEEESLTSHAAIIGLRLGVPVIVGFKGATQKIRDGAIVTIDAQKGLIYSGALPPVSKG
notes: synthesized gene in pGEX6P-1 (BamHI-XhoI), GST fusion from E. coli BL21, GST tag cut by PreScission protease; untagged 63 kDa
- Km (purified protein [3]): 52.7 ± 7.6 µM
- kcat (purified protein [3]): 251 ± 6 s⁻¹
- kcat/Km (purified protein [3]): 4.84e+06 ± 733000 M⁻¹ s⁻¹
- Km (purified protein [4]): 1530 ± 70 µM
- kcat (purified protein [4]): 253 ± 11 s⁻¹
- kcat/Km (purified protein [4]): 166000 ± 3000 M⁻¹ s⁻¹
